B1: PME1 (found with purified B55 variants) [human] / B55α WT (immunopurified, Fig. 2) [not stated] (parent complex)
chain 1: MSALEKSMHLGRLPSRPPLPGSGGSQSGAKMRMGPGRKRDFSPVPWSQYFESMEDVEVENETGKDTFRVYKSGSEGPVLLLLHGGGHSALSWAVFTAAIISRVQCRIVALDLRSHGETKVKNPEDLSAETMAKDVGNVVEAMYGDLPPPIMLIGHSMGGAIAVHTASSNLVPSLLGLCMIDVVEGTAMDALNSMQNFLRGRPKTFKSLENAIEWSVKSGQIRNLESARVSMVGQVKQCEGITSPEGSKSIVEGIIEEEEEDEEGSESISKRKKEDDMETKKDHPYTWRIELAKTEKYWDGWFRGLSNLFLSCPIPKLLLLAGVDRLDKDLTIGQMQGKFQMQVLPQCGHAVHEDAPDKVAEAVATFLIRHRFAEPIGGFQCVFPGC
chain 2: MAGAGGGNDIQWCFSQVKGAVDDDVAEADIISTVEFNHSGELLATGDKGGRVVIFQQEQENKIQSHSRGEYNVYSTFQSHEPEFDYLKSLEIEEKINKIRWLPQKNAAQFLLSTNDKTIKLWKISERDKRPEGYNLKEEDGRYRDPTTVTTLRVPVFRPMDLMVEASPRRIFANAHTYHINSISINSDYETYLSADDLRINLWHLEITDRSFNIVDIKPANMEELTEVITAAEFHPNSCNTFVYSSSKGTIRLCDMRASALCDRHSKLFEEPEDPSNRSFFSEIISSISDVKFSHSGRYMMTRDYLSVKIWDLNMENRPVETYQVHEYLRSKLCSLYENDCIFDKFECCWNGSDSVVMTGSYNNFFRMFDRNTKRDITLEASRENNKPRTVLKPRKVCASGKRKKDEISVDSLDFNKKILHTAWHPKENIIAVATTNNLYIFQDKVN

Variants of: B1
Experiment: immunopurification of YFP-B55α variants (IP: YFP), Western blot quantification; read off a plot

Variant | percent of parent [%]
chain 2 MAGAGGGNDIQWCFSQVKGAVDDDVAEADIISTVEFNHSGELLATGDKGGRVVIFQQEQENKIQSHSRGEYNVYSTFQSHEPEFDYLKSLEIEEKINKIRWLPQKNAAQFLLSTNDKTIKLWKISERDKRPEGYNLKEEDGRYRDPTTVTTLRVPVFRPMDLMVEASPRRIFANAHTYAINSISINSDYETYLSADDLRINLWHLEITDRSFNIVDIKPANMEELTEVITAAEFHPNSCNTFVYSSSKGTIRLCDMRASALCDRHSKLFEEPEDPSNRSFFSEIISSISDVKFSHSGRYMMTRDYLSVKIWDLNMENRPVETYQVHEYLRSKLCSLYENDCIFDKFECCWNGSDSVVMTGSYNNFFRMFDRNTKRDITLEASRENNKPRTVLKPRKVCASGKRKKDEISVDSLDFNKKILHTAWHPKENIIAVATTNNLYIFQDKVN [chain 2 H179A] | ~170
chain 2 MAGAGGGNDIQWCFSQVKGAVDDDVAEADIISTVEFNHSGELLATGDKGGRVVIFQQEQENKIQSHSRGEYNVYSTFQSHEPEFDYLKSLEIEEKINKIRWLPQKNAAQFLLSTNDKTIKLWKISERDKRPEGYNLKEEDGRYRDPTTVTTLRVPVFRPMDLMVEASPRRIFANAHTYHINSISINSDYETYLSADDLRINLWHLEITDRSFNIVDIKPANMEEATEVITAAEFHPNSCNTFVYSSSKGTIRLCDMRASALCDRHSKLFEEPEDPSNRSFFSEIISSISDVKFSHSGRYMMTRDYLSVKIWDLNMENRPVETYQVHEYLRSKLCSLYENDCIFDKFECCWNGSDSVVMTGSYNNFFRMFDRNTKRDITLEASRENNKPRTVLKPRKVCASGKRKKDEISVDSLDFNKKILHTAWHPKENIIAVATTNNLYIFQDKVN [chain 2 L225A] | ~3
chain 2 MAGAGGGNDIQWCFSQVKGAVDDDVAEADIISTVEFNHSGELLATGDKGGRVVIFQQEQENKIQSHSRGEYNVYSTFQSHEPEFDYLKSLEIEEKINKIRWLPQKNAAQFLLSTNDKTIKLWKISERDKRPEGYNLKEEDGRYRDPTTVTTLRVPVFRPMDLMVEASPRRIFANAHTYHINSISINSDYETYLSADDLRINLWHLEITDRSFNIVDIKPANMEELTEVITAAEFHPNSCNTFVYSSSKGTIRLCDMRASALCDRHSKLFEEPEDPSNRSAFSEIISSISDVKFSHSGRYMMTRDYLSVKIWDLNMENRPVETYQVHEYLRSKLCSLYENDCIFDKFECCWNGSDSVVMTGSYNNFFRMFDRNTKRDITLEASRENNKPRTVLKPRKVCASGKRKKDEISVDSLDFNKKILHTAWHPKENIIAVATTNNLYIFQDKVN [chain 2 F280A] | ~130
chain 2 MAGAGGGNDIQWCFSQVKGAVDDDVAEADIISTVEFNHSGELLATGDKGGRVVIFQQEQENKIQSHSRGEYNVYSTFQSHEPEFDYLKSLEIEEKINKIRWLPQKNAAQFLLSTNDKTIKLWKISERDKRPEGYNLKEEDGRYRDPTTVTTLRVPVFRPMDLMVEASPRRIFANAHTYHINSISINSDYETYLSADDLRINLWHLEITDRSFNIVDIKPANMEELTEVITAAEFHPNSCNTFVYSSSKGTIRLCDMRASALCDRHSKLFEEPEDPSNRSFFSEAISSISDVKFSHSGRYMMTRDYLSVKIWDLNMENRPVETYQVHEYLRSKLCSLYENDCIFDKFECCWNGSDSVVMTGSYNNFFRMFDRNTKRDITLEASRENNKPRTVLKPRKVCASGKRKKDEISVDSLDFNKKILHTAWHPKENIIAVATTNNLYIFQDKVN [chain 2 I284A] | ~13
chain 2 MAGAGGGNDIQWCFSQVKGAVDDDVAEADIISTVEFNHSGELLATGDKGGRVVIFQQEQENKIQSHSRGEYNVYSTFQSHEPEFDYLKSLEIEEKINKIRWLPQKNAAQFLLSTNDKTIKLWKISERDKRPEGYNLKEEDGRYRDPTTVTTLRVPVFRPMDLMVEASPRRIFANAHTYHINSISINSDYETYLSADALRINLWHLEITDRSFNIVDIKPANMEELTEVITAAEFHPNSCNTFVYSSSKGTIRLCDMRASALCDRHSKLFEEPEDPSNRSFFSEIISSISDVKFSHSGRYMMTRDYLSVKIWDLNMENRPVETYQVHEYLRSKLCSLYENDCIFDKFECCWNGSDSVVMTGSYNNFFRMFDRNTKRDITLEASRENNKPRTVLKPRKVCASGKRKKDEISVDSLDFNKKILHTAWHPKENIIAVATTNNLYIFQDKVN [chain 2 D197A] | ~3
chain 2 MAGAGGGNDIQWCFSQVKGAVDDDVAEADIISTVEFNHSGELLATGDKGGRVVIFQQEQENKIQSHSRGEYNVYSTFQSHEPEFDYLKSLEIEEKINKIRWLPQKNAAQFLLSTNDKTIKLWKISERDKRPEGYNLKEEDGRYRDPTTVTTLRVPVFRPMDLMVEASPRRIFANAHTYHINSISINSDYETYLSADDLRINLWHLEITDRSFNIVDIKPANMEELTEVITAAEFHPNSCNTFVYSSSKGTIRLCDMRASALCDRHSKLFEEPEDPSNRSFFSEIISSISDVKFSHSGRYMMTRDYLSVKIWDLNMENRPVETYQVHEYLRSKLCSLYENDCIADKFECCWNGSDSVVMTGSYNNFFRMFDRNTKRDITLEASRENNKPRTVLKPRKVCASGKRKKDEISVDSLDFNKKILHTAWHPKENIIAVATTNNLYIFQDKVN [chain 2 F343A] | ~3
chain 2 MAGAGGGNDIQWCFSQVKGAVDDDVAEADIISTVEFNHSGELLATGDKGGRVVIFQQEQENKIQSHSRGEYNVYSTFQSHEPEFDYLKSLEIEEKINKIRWLPQKNAAQFLLSTNDKTIKLWKISERDKRPEGYNLKEEDGRYRDPTTVTTLRVPVFRPMDLMVEASPRRIFANAHTYHINSISINSDYETYLSADDARINLWHLEITDRSFNIVDIKPANMEELTEVITAAEFHPNSCNTFVYSSSKGTIRLCDMRASALCDRHSKLFEEPEDPSNRSFFSEIISSISDVKFSHSGRYMMTRDYLSVKIWDLNMENRPVETYQVHEYLRSKLCSLYENDCIFDKFECCWNGSDSVVMTGSYNNFFRMFDRNTKRDITLEASRENNKPRTVLKPRKVCASGKRKKDEISVDSLDFNKKILHTAWHPKENIIAVATTNNLYIFQDKVN [chain 2 L198A] | ~2
chain 2 MAGAGGGNDIQWCFSQVKGAVDDDVAEADIISTVEFNHSGELLATGDKGGRVVIFQQEQENKIQSHSRGEYNVYSTFQSHEPEFDYLKSLEIEEKINKIRWLPQKNAAQFLLSTNDKTIKLWKISERDKRPEGYNLKEEDGRYRDPTTVTTLRVPVFRPMDLMVEASPRRIFANAHTYHINSISINSDYETYLSADDLRINLWHLEITDRSFNIVDIKPANMEELTEVITAAEFHPNSCNTFVYSSSKGTIRLCDMRASALCDRHSKLFEEPEDPSNRSFFSEIISSISDVKFSHSGRYMMTRDYLSVKIWDLNMENRPVETYQVHEYLRSKLCSLYENACIFDKFECCWNGSDSVVMTGSYNNFFRMFDRNTKRDITLEASRENNKPRTVLKPRKVCASGKRKKDEISVDSLDFNKKILHTAWHPKENIIAVATTNNLYIFQDKVN [chain 2 D340A] | ~50

The remaining lines, values ahead:

percent of parent [%] | Variant
~3 | chain 2 MAGAGGGNDIQWCFSQVKGAVDDDVAEADIISTVEFNHSGELLATGDKGGRVVIFQQEQENKIQSHSRGEYNVYSTFQSHEPEFDYLKSLEIEEKINKIRWLPQKNAAQFLLSTNDKTIKLWKISERDKRPEGYNLKEEDGRYRDPTTVTTLRVPVFRPMDLMVEASPRRIFANAHTYHINSISINSDYETYLSADDLRINLWHLEITDRSFNIVDIKPANMEELTEVIAAAEFHPNSCNTFVYSSSKGTIRLCDMRASALCDRHSKLFEEPEDPSNRSFFSEIISSISDVKFSHSGRYMMTRDYLSVKIWDLNMENRPVETYQVHEYLRSKLCSLYENDCIFDKFECCWNGSDSVVMTGSYNNFFRMFDRNTKRDITLEASRENNKPRTVLKPRKVCASGKRKKDEISVDSLDFNKKILHTAWHPKENIIAVATTNNLYIFQDKVN [chain 2 T230A]
~53 | chain 2 MAGAGGGNDIQWCFSQVKGAVDDDVAEADIISTVEFNHSGELLATGDKGGRVVIFQQEQENKIQSHSRGEYNVYSTFQSHEPEFDYLKSLEIEEKINKIRWLPQKNAAQFLLSTNDKTIKLWKISERDKRPEGYNLKEEDGRYRDPTTVTTLRVPVFRPMDLMVEASPRRIFANAHTYHINSISINSDYETYLSADDLRINLWHLEITDRSFNIVDIKPANMEELTEVITAAEFHPNSCNTFVYSSSKGTIRLCDMRASALCDRHSKLFEEPEDPSNRSFFSEIISSISDVKFSHSGRYMMTRDYLSVKIWDLNMENRPVETYQVHEYLRSKLCSLAENDCIFDKFECCWNGSDSVVMTGSYNNFFRMFDRNTKRDITLEASRENNKPRTVLKPRKVCASGKRKKDEISVDSLDFNKKILHTAWHPKENIIAVATTNNLYIFQDKVN [chain 2 Y337A]
~9 | chain 2 MAGAGGGNDIQWCFSQVKGAVDDDVAEADIISTVEFNHSGELLATGDKGGRVVIFQQEQENKIQSHSRGEYNVYSTFQSHEPEFDYLKSLEIEEKINKIRWLPQKNAAQFLLSTNDKTIKLWKISERDKRPEGYNLKEEDGRYRDPTTVTTLRVPVFRPMDLMVEASPRRIFANAHTYHINSISINSDYETYLSADDLRINLWHLEITDRSFNIVDIKPANMEELTEAITAAEFHPNSCNTFVYSSSKGTIRLCDMRASALCDRHSKLFEEPEDPSNRSFFSEIISSISDVKFSHSGRYMMTRDYLSVKIWDLNMENRPVETYQVHEYLRSKLCSLYENDCIFDKFECCWNGSDSVVMTGSYNNFFRMFDRNTKRDITLEASRENNKPRTVLKPRKVCASGKRKKDEISVDSLDFNKKILHTAWHPKENIIAVATTNNLYIFQDKVN [chain 2 V228A]
~4 | chain 2 MAGAGGGNDIQWCFSQVKGAVDDDVAEADIISTVEFNHSGELLATGDKGGRVVIFQQEQENKIQSHSRGEYNVYSTFQSHEPEFDYLKSLEIEEKINKIRWLPQKNAAQFLLSTNDKTIKLWKISERDKRPEGYNLKEEDGRYRDPTTVTTLRVPVFRPMDLMVEASPRRIFANAHTYHINSISINSDYETYLSADDLRINLWHLEITDRSFNIVDIKPANMEELTEVITAAEFHPNSCNTFVYSSSKGTIRLCDMRASALCDRHSKLFEEPEDPSNRSFFSEIISAISDVKFSHSGRYMMTRDYLSVKIWDLNMENRPVETYQVHEYLRSKLCSLYENDCIFDKFECCWNGSDSVVMTGSYNNFFRMFDRNTKRDITLEASRENNKPRTVLKPRKVCASGKRKKDEISVDSLDFNKKILHTAWHPKENIIAVATTNNLYIFQDKVN [chain 2 S287A]
~13 | chain 2 MAGAGGGNDIQWCFSQVKGAVDDDVAEADIISTVEFNHSGELLATGDKGGRVVIFQQEQENKIQSHSRGEYNVYSTFQSHEPEFDYLKSLEIEEKINKIRWLPQKNAAQFLLSTNDKTIKLWKISERDKRPEGYNLKEEDGRYRDPTTVTTLRVPVFRPMDLMVEASPRRIFANAHTAHINSISINSDYETYLSADDLRINLWHLEITDRSFNIVDIKPANMEELTEVITAAEFHPNSCNTFVYSSSKGTIRLCDMRASALCDRHSKLFEEPEDPSNRSFFSEIISSISDVKFSHSGRYMMTRDYLSVKIWDLNMENRPVETYQVHEYLRSKLCSLYENDCIFDKFECCWNGSDSVVMTGSYNNFFRMFDRNTKRDITLEASRENNKPRTVLKPRKVCASGKRKKDEISVDSLDFNKKILHTAWHPKENIIAVATTNNLYIFQDKVN [chain 2 Y178A]

Reference: PMC11446282 (2024)
